The target of this test is DR5-KF fusion protein (human, UniProt O14763 54-183; P01834 1-107, limits assumed). The experiment in a line: sandwich ELISA for simultaneous binding: anti-DR4 mAb coat, DR4-hFc 0.5 µg/ml, test mAb, DR5-KF 0.5 µg/ml, HRP-anti-Flag M2.
DR5-KF fusion protein, sequence (O14763 other isoform, or with tags, fused parts or gaps limits assumed): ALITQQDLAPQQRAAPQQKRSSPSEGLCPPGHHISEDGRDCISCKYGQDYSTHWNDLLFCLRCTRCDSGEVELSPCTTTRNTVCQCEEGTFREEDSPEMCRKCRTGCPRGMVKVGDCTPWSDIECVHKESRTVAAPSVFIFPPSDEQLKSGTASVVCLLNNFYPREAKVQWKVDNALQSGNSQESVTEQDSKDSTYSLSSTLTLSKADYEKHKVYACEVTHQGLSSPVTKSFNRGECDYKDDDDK

Protocol: Each step of each ELISA assay described in this patent application was performed by room temperature incubation with the appropriate reagent for 1 hour, except the initial plate coating step was done overnight at 4° C. followed by blocking with 2% BSA for 1 hr. Between each step, plates were washed 3 times in PBS containing 0.05% Tween 20. Data points were generally in duplicate or triplicate; there was generally little variability between replicate data points.
Bound DR5-KF was detected with HRP-anti-Flag M2 (Sigma) and substrate.

B1: B-4H6/3H3-hFc** (bispecific antibody, human IgG1, kappa)
heavy: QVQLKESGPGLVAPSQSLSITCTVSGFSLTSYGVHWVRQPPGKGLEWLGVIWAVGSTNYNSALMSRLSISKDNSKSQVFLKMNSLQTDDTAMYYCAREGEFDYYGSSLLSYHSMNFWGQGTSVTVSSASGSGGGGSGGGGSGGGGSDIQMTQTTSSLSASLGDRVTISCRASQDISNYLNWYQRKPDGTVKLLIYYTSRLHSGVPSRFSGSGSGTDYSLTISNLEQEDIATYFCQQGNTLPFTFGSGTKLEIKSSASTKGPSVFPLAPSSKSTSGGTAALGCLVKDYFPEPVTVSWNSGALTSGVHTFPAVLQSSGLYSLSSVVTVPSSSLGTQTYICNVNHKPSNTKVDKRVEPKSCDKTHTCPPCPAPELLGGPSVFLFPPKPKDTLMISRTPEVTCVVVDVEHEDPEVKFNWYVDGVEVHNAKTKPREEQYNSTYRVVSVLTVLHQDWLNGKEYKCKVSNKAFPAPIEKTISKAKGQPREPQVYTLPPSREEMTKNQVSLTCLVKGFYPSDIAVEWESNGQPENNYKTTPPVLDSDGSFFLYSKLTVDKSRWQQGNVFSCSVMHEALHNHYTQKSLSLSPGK
light: EVQLQQSGPELVKPGASVKMSCKASGYTFTSYVMHWVKQKPGQGLEWIGYIIPYNDGTKYNEKFKGKATLTSDKSSSTAYMELSRLTSEDSAVYYCARGGINYDYLYYFDYWGQGTTLTVSSASGSGGGGSGGGGSGGGGSDVVMTQIPLSLPVSLGDQASISCRSSQSLVHSNGNTYLHWYLQKPGQSPKLLIYKVSNRFSGVPDRFSGSGSGTDFTLKISRVEAEDLGVYFCSQSTHVPHTFGGGTKLEIKRTVAAPSVFIFPPSDEQLKSGTASVVCLLNNFYPREAKVQWKVDNALQSGNSQESVTEQDSKDSTYSLSSTLTLSKADYEKHKVYACEVTHQGLSSPVTKSFNRGEC
notes: Bs(scFv)4-IgG format; also called bispecific B-4H6/3H3-hFc** mAb
For B1, the binding result is reported as “binds”.

The values above are taken from patent US20190062443A1 (GALAXY BIOTECH, published 2019).
